The source of these data is publication PMC3036719.

Where two headings read alike, the source gives them in different places. Bounds are passed on as bounds.

In assay [1] the target is fibrinogen fragment D (human). In words: bacterial cell adhesion ELISA; wells coated with 1 µg human fibrinogen or fragment D, blocked with 20 mg/mL BSA; 3×10^8 leptospires, 1 h at 30°C; adherent cells fixed with formaldehyde and detected with a rabbit antibody to L. biflexa; increase over wild-type L. biflexa. Background: ELISA stands for enzyme-linked immunosorbent assay.

For assay [2], the target named is human fibrinogen (human) (UniProt P02671). The description is as above.
Assay [3] has the same target. The assay is described as follows: ELISA; host protein (1 µg per well) immobilised in microtiter wells, blocked with 20 mg/mL BSA; recombinant LigB in 20 mg/mL BSA in PBS pH 7.2, 1 h at 37°C; bound LigB detected by its polyhistidine tag; apparent Kd from the LigB concentration at half-maximal binding.
Assay [4] addresses human fibronectin from plasma (human). The assay is described as above.
Assay [5] concerns the target human fibrinogen (human) (UniProt P02671). The assay is described as follows: ELISA; data not shown; LigB proteins on immobilised fibronectin, its 70-kDa N-terminal fragment or fibrinogen.
In assay [6] the target is human fibronectin from plasma (human). The description is as above.
In assay [7] the target is human fibrinogen (human) (UniProt P02671).
Assay [8] addresses human fibronectin from fibroblasts (human). The assay is described as follows: ELISA; host protein (1 µg per well) immobilised in microtiter wells, blocked with 20 mg/mL BSA; recombinant LigB in 20 mg/mL BSA in PBS pH 7.2, 1 h at 37°C; bound LigB detected by its polyhistidine tag; apparent Kd from the LigB concentration at half-maximal binding.
The target of assay [9] is human fibronectin from plasma (human). The description is as above. This is another data set of the same source.
In assay [10] the target is human type III collagen (human) (UniProt P02461). The description is as above.
Assay [11] concerns the target human fibrinogen (human) (UniProt P02671). Described as above. This is another data set of the same source.

Chain of human fibrinogen (human) (P02671 20-866, chain 1 of 3): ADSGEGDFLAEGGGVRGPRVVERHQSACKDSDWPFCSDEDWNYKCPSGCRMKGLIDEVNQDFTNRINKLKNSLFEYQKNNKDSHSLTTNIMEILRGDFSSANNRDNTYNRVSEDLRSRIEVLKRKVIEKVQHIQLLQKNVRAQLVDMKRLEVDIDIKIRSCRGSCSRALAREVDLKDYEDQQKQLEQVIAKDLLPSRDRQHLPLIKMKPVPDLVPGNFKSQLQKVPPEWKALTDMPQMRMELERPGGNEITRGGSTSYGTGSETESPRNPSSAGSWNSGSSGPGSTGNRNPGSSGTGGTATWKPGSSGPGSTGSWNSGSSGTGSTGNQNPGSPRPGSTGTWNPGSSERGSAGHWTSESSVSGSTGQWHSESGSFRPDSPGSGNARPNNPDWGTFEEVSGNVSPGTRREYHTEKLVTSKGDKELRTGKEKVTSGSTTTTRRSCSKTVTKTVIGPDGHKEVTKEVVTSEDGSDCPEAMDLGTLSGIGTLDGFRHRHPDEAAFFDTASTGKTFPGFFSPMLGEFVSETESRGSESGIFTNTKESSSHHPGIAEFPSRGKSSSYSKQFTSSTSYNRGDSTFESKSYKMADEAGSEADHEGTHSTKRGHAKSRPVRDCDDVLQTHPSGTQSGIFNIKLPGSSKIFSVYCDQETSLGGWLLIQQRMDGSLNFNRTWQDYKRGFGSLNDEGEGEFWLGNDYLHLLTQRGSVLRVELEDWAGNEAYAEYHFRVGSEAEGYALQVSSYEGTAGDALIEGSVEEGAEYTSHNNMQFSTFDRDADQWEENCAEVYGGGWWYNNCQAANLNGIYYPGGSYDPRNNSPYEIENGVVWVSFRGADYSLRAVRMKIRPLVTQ
Chain of human fibrinogen (human) (P02675 31-491, chain 2 of 3, further chain): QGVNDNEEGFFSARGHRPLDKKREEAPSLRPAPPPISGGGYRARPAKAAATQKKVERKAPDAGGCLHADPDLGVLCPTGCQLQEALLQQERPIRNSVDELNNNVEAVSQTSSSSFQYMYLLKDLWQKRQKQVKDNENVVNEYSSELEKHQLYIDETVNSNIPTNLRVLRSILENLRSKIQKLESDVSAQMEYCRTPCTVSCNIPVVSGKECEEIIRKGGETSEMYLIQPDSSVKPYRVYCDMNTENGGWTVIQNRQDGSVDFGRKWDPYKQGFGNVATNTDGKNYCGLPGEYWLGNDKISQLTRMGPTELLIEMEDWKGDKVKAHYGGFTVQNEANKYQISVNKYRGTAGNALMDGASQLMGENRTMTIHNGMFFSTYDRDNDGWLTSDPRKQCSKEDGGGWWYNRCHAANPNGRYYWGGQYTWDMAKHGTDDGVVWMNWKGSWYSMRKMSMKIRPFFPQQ
Chain of human fibrinogen (human) (P02679 27-453, chain 3 of 3, further chain): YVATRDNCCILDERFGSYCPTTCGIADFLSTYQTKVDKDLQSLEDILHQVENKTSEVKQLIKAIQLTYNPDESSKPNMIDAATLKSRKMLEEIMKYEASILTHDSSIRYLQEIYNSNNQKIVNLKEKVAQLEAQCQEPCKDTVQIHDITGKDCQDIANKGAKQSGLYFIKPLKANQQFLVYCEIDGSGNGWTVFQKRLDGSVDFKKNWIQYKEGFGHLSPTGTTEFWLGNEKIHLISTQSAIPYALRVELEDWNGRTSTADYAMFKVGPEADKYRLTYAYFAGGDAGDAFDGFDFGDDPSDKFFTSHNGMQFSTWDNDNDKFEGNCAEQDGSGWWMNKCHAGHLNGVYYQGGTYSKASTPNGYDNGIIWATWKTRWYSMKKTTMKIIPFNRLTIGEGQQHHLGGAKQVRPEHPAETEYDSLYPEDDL
Chain of human type III collagen (human) (P02461 154-1221): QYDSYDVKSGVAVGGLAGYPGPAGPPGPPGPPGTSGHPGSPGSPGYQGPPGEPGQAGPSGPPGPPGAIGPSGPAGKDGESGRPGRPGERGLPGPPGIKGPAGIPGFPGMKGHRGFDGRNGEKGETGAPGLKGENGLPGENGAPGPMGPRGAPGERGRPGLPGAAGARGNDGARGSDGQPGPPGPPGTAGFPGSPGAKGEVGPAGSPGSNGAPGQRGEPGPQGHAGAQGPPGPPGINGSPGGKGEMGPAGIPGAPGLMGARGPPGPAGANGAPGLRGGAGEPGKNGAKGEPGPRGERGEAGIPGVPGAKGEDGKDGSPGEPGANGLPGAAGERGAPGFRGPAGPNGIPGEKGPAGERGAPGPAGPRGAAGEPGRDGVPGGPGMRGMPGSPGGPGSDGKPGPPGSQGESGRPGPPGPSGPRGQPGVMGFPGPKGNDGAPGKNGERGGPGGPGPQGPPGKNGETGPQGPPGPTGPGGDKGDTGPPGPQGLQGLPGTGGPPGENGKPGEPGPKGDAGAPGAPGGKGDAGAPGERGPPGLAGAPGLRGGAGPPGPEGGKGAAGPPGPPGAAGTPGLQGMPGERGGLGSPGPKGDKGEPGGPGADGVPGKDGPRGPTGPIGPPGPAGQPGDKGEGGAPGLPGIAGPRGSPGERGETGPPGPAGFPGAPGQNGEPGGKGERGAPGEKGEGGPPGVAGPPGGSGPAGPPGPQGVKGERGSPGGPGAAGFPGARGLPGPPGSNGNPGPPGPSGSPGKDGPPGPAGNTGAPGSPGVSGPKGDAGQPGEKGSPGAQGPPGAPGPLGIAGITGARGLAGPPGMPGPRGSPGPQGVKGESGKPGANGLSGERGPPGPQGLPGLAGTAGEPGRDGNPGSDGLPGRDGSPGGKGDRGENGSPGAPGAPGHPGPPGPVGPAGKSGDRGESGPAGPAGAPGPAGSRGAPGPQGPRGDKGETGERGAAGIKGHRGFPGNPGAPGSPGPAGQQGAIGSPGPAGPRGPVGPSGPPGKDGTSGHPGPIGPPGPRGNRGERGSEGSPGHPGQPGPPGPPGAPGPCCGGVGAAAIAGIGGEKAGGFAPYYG
Chain of fibrinogen fragment D (human) (P02671 130-216, chain 1 of 3): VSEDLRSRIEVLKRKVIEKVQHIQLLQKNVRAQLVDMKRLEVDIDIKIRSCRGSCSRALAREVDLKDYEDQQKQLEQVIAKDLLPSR
Chain of fibrinogen fragment D (human) (P02675 164-491, chain 2 of 3, further chain): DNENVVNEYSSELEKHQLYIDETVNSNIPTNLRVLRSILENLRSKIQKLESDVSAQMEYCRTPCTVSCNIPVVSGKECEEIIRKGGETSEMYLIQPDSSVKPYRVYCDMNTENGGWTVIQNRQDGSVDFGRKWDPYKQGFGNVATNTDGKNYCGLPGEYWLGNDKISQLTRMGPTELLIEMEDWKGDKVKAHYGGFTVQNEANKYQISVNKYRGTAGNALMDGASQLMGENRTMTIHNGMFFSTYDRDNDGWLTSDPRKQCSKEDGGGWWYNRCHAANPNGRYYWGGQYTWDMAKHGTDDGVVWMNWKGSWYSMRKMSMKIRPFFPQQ
Chain of fibrinogen fragment D (human) (P02679 114-432, chain 3 of 3, further chain): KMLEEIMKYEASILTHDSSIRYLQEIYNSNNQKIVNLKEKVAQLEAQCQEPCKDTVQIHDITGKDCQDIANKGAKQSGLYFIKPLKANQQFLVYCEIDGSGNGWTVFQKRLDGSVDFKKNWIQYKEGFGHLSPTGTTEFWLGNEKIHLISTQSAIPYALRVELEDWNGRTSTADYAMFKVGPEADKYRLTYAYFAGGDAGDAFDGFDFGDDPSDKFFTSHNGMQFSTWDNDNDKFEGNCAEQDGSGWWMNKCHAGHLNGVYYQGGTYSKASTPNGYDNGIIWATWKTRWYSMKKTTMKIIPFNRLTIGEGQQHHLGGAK

The substance “LigA from L. interrogans expressed on L. biflexa (ligA transformant) (natural protein)” showed a percent increase of adhesion over wild-type L. biflexa in assay [1] of 58%. Besides, in [2], the percent increase of adhesion over wild-type L. biflexa came to 55% and the percent increase of adhesion over wild-type L. biflexa (representative experiment) came to 56%.
Take LigB9-10 (domain or fragment): the results for the Kd in [3] and in [4] were 169 nM and 252 nM, respectively.
The like results for LigB7′-12 (domain or fragment) were, in that order, 34 nM and 23 nM.
Take LigB7′-11 (domain or fragment): the Kd in assay [3] worked out at 63 nM; in assay [4] it was 27 nM.
Take LigB8-12 (domain or fragment): in assay [4], the Kd was 26 nM.
Regarding LigB7′-10 (domain or fragment), the Kd in assay [3] came out at 207 nM; in assay [4], 77 nM.
For “LigB9-11 with N-terminal H6 (cloned in pET-14b) (domain or fragment)”, the residual fibrinogen-binding activity relative to LigB9-11 in [5] was < 10%.
In assay [2], “LigB from L. interrogans expressed on L. biflexa (ligB transformant) (natural protein)” had a percent increase of adhesion over wild-type L. biflexa of 55% and a percent increase of adhesion over wild-type L. biflexa (representative experiment) of 37%.
In the case of LigB9-11′ (domain or fragment), the percent decrease of fibrinogen-binding activity relative to LigB9-11 in assay [5] was 50%. Besides, in assay [6], the percent decrease of fibronectin-binding activity relative to LigB9-11 was 80%.
Turning to LigB9-12 (domain or fragment), the Kd was 37 nM in assay [3] and 22 nM in assay [4].
Take LigB9-11 (domain or fragment): in assay [7], the decrease of thrombin-catalysed fibrin formation from purified fibrinogen (3 µM fibrinogen preincubated with 5 µM LigB9-11; three determinations, 22 to 43%) is 29%. Further, the Kd was determined as 27 nM in assay [3]; 31 nM in [4]; 25 nM in [8]; 32 nM in assay [9]; 30 nM in assay [10]; 28 nM in [11].
